In the assay the target is streptavidin 2 (Sav2) (Streptomyces avidinii).

In the case of “streptavidin 2 (Sav2) (domain or fragment)”, the stoichiometry N turned out to be 4.

For the origin of these results see paper doi:10.1101/2025.11.10.687665.
